Blank lines part the entries; values can stand above or below the molecule they belong to.
Columns and labels:
MMP-9 [1] = target: T1, MMP-9 (Homo sapiens, UniProt P14780); assay: Binding of non-inhibiting Fabs to MMP-9 (apparent KD, dissociation t1/2, TIMP-1 competition); details: Fab
MMP-9 [2] = target: T1, MMP-9; assay: Initial screen of sFabs/IgG1s for inhibition of MMP-9 at 1 μM; format: biochemical
Experimental: After sequencing analysis, the phage display were converted into sFabs and then into IgG1s. Their ability to inhibit MMP-9 and other MMPs (1, 3, 7, 8, 9, 10, 12, 13, 14) was determined by usual means. Compounds were initially screened at 1 μM against MMP-9 and those compounds that inhibited MMP-9 >80% were subjected to additional screens against purified recombinant human MMP-2 (APMA activated enzyme) and other MMPs. For these additional screens, an IC50 value was determined. Ki values and specificities of the inhibitors were determined as described below.

[3] = target: T2, Human MMP-9 catalytic domain (Homo sapiens, UniProt P14780); assay: Biacore 3000 binding to antibody-coated CM5 chip; details: 25° C.
T2 construct: Human MMP-9 catalytic domain (BIOMOL, SE-244); purchased BIOMOL SE-244
Experimental: (§1) Experiments were performed at 25° C. with the help of a Biacore 3000 instrument. The MMP-9 binding protein (M0166F10) and the M0237-D02 antibody were coated to a CM5 chip either via standard amine coupling or using an anti-Fc antibody surface. Then either the active, human MMP-9 catalytic domain (BIOMOL, SE-244), the human pro-MMP-9 (R&D, 911-MP), the human TIMP-1 (R&D, 970-TM) or a h-MMP-9/h-TIMP-1 complex were flowed over the antibody surfaces, and binding was recorded.

human TIMP-1 = target: T3, human TIMP-1 (Homo sapiens, UniProt P01033); assay: Biacore 3000 binding to antibody-coated CM5 chip; details: Direct capture; 25° C.
T3 construct: purchased R&D Systems 970-TM
Experimental: as §1

human pro-MMP-9 = target: T4, human pro-MMP-9 (Homo sapiens, UniProt P14780); assay: Biacore 3000 binding to antibody-coated CM5 chip; details: Direct capture, 25° C.
T4 construct: the human pro-MMP-9 (R&D, 911-MP); purchased R&D Systems 911-MP
Experimental: as §1

h-MMP-9/h-TIMP-1 complex = h-MMP-9/h-TIMP-1 complex (Homo sapiens, UniProt P14780); assay: Biacore 3000 binding to antibody-coated CM5 chip; details: Direct capture, 25° C.
Experimental: The non competitive inhibition model implies that the ternary complex enzyme-substrate-inhibitor can form. It is however possible that this complex cannot form with bigger substrates, in which case the antibody would behave as a competitive inhibitor. In order to address this issue, the ability of M0237-D02 antibody to bind to the h-MMP-9 when the enzyme is complexed to its natural inhibitor h-TIMP-1 was determined. The reasoning is that if the antibody cannot bind to the h-MMP-9/h-TIMP-1 complex, it would probably behave as a competitive inhibitor of this enzyme in the presence of bigger substrates.
as §1

T1 sequence (P14780 94-707): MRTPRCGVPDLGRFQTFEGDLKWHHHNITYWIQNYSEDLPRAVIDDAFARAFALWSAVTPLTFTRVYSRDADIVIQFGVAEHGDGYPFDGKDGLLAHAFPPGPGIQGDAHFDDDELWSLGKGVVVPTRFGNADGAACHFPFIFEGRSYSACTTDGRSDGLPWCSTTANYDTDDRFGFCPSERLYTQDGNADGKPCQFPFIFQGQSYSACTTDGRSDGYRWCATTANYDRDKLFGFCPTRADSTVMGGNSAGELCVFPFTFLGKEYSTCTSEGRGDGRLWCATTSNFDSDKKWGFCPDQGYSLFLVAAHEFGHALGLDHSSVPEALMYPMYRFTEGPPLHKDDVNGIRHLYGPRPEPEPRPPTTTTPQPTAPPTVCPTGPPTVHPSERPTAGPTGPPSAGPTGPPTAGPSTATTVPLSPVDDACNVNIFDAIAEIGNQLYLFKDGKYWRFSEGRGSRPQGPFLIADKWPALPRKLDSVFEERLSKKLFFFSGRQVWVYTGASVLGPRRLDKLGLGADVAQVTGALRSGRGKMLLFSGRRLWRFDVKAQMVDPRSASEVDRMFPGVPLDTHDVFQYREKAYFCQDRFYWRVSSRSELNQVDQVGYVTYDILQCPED
T2 sequence (P14780 107-444 limits assumed): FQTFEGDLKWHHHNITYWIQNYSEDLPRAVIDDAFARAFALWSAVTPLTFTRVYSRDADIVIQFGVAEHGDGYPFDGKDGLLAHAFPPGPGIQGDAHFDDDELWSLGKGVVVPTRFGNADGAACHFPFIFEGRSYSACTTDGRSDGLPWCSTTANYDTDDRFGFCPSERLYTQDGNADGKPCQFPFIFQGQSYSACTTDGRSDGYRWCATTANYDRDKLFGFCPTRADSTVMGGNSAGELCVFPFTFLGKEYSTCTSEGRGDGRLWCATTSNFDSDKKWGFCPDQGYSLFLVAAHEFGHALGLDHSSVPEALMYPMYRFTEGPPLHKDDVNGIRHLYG
T4 sequence (P14780 20-707 limits assumed): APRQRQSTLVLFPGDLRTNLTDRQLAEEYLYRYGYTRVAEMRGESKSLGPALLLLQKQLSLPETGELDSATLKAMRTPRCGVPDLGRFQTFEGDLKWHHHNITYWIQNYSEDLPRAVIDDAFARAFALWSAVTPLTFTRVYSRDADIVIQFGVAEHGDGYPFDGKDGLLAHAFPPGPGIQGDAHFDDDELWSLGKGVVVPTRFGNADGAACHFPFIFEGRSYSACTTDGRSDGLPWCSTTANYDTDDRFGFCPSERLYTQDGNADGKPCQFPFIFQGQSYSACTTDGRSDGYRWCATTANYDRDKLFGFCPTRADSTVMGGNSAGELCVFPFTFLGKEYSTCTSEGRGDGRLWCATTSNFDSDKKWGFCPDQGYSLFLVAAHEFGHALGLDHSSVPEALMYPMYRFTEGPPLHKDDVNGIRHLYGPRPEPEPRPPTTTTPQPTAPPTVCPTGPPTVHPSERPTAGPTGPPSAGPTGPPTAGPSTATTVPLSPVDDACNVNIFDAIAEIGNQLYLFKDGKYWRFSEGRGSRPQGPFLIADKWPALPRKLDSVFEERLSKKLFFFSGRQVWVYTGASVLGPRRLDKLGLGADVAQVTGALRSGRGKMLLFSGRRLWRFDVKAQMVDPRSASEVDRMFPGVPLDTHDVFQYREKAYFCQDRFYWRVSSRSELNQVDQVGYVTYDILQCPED
Sequence of h-MMP-9/h-TIMP-1 complex (P14780 107-444 limits assumed): as the sequence (P14780 107-444 limits assumed) above
Sequence of h-MMP-9/h-TIMP-1 complex (P01033 24-207 partner): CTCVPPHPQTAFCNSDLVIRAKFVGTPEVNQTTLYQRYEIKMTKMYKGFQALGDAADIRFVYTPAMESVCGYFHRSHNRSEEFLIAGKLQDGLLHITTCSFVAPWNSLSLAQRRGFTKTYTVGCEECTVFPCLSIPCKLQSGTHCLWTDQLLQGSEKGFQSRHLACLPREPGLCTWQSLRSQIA
T3 sequence (P01033 24-207): as the sequence (P01033 24-207 partner) above

competition with TIMP-1 (MMP-9 [1]): does not compete with TIMP-1
dissociation t1/2 (MMP-9 [1]): 25 min
inhibition of the catalytic activity of MMP-9 (MMP-9 [2]): Neither antibody inhibits
B1: M0078-G07: Fab that binds MMP-9 but does not inhibit (antibody, V domains shown)
VH: EVQLLESGGGLVQPGGSLRLSCAASGFTFSSYTMEWVRQAPGKGLEWVSWISPSGGYTFYADSVKGRFTISRDNSKNTLYLQMNSLRAEDTALYYCARGYSYGSIDLWGRGTLVTVSS
VL: QDIQMTQSPGTLSVSPGERATLSCRASQSVSSDLAWYQHKPGQAPRLLIYGVSTKATGVPARFSGSGSGTEFTLTISSLQSEDLAVYYCQQYHNWPPLTFGGGTKVEIK

binding of Cat-huMMP-9 ([3]; Direct capture (amine coupling)): binds
binding of Cat-huMMP-9 ([3]; Direct capture (amine coupling), listed as 539A-M0166F10): Yes
binding of Cat-huMMP-9 ([3]; Fc capture (anti-Fc antibody surface)): binds
binding of Cat-huMMP-9 ([3]; Fc capture (anti-Fc antibody surface), listed as 539A-M0166F10): Yes
binding of huTIMP-1 (human TIMP-1): No
binding of Pro-huMMP-9 (human pro-MMP-9): observed neither
binding of Pro-huMMP-9 (human pro-MMP-9; listed as 539A-M0166F10): ~No
binding of huTIMP-1/cat-huMMP-9 (h-MMP-9/h-TIMP-1 complex): no binding was observed
binding of huTIMP-1/cat-huMMP-9 (h-MMP-9/h-TIMP-1 complex; listed as 539A-M0166F10): No
B2: M0166-F10: inhibitory MMP-9 binding antibody (hMMP-9 antibody inhibitor) (antibody, V domains shown)
VH: EVQLLESGGGLVQPGGSLRLSCAASGFTFSPYLMNWVRQAPGKGLEWVSSIYSSGGGTGYADSVKGRFTISRDNSKNTLYLQMNSLRAEDTAVYYCARIYHSSSGPFYGMDVWGQGTTVTVSS
VL: QSELTQPPSASAAPGQRVTISCSGSSSNIGSNTVTWYQKLPGTAPKLLIYNNYERPSGVPARFSGSKSGTSASLAISGLQSEDEADYYCATWDDSLIANYVFGSGTKVTVLGQPKANP
